The text below walks through data of publication PMC10801813, “In silico protein interaction screening uncovers DONSON’s role in replication initiation” (Science (New York, N.Y.), 2023).

A word on the stoichiometry N: it is the number of molecules, sites or subunits per partner or assembly.

Data set [1] deals with T1, Recombinant Xenopus GINS (preparation of ref. 54, Sf9 expression) (Xenopus laevis, UniProt Q7ZT47 1-196; Q7ZT46 1-185; Q7ZT01 1-210; Q7ZT48 1-221).
T1 construct: PSF1 subunit of Xenopus GINS; PSF2 subunit of Xenopus GINS; PSF3 subunit of Xenopus GINS; SLD5 subunit of Xenopus GINS; also called purified GINS; source: Sf9 expression, purified; copies: + + +
T1 sequence (looked up) 1: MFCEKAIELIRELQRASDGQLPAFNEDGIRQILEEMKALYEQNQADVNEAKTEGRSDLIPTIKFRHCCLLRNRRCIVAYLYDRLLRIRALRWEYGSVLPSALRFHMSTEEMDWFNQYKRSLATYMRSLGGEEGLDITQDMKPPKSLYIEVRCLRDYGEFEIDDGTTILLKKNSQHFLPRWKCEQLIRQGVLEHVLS
T1 sequence (looked up) 2: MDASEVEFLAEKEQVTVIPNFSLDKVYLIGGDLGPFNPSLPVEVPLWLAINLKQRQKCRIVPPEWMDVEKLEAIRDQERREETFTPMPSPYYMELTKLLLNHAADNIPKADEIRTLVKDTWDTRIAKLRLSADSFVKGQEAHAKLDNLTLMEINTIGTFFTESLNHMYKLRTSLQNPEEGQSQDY
T1 sequence (looked up) 3: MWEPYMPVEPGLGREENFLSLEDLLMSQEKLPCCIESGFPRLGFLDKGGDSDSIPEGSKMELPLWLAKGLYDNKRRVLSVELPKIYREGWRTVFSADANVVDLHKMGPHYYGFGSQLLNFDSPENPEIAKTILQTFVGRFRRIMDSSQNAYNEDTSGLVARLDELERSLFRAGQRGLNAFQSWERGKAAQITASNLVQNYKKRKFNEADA
T1 sequence (looked up) 4: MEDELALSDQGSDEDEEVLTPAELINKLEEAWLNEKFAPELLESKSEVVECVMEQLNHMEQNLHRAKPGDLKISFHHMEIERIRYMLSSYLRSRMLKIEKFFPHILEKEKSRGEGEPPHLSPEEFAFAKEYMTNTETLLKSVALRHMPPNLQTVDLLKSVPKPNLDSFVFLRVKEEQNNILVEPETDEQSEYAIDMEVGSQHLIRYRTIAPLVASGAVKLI
The experiment in a line: co-IP; purified FLAG-DONSON, GINS and TOPBP1^1−530 mixed, each 0.5 μM in IP wash buffer, 15 min room temperature; anti-FLAG beads 30 min room temperature; immunoblot (fig. S11B, lanes 22 to 24). The conditions noted are these: both partners purified. (In western blotting, separated proteins are transferred to a membrane and probed.)

Data set [2] concerns the molecule itself. Nature of the data set: mass photometry; Refeyn TwoMP; FLAG-DONSON diluted to 200 nM in egg lysis buffer (10 mM HEPES-KOH pH 7.7, 50 mM KCl, 2.5 mM MgCl2, 250 mM sucrose), 2 μL mixed into an 18 μL droplet of PBS.

Substitutions are numbered along the chain they refer to. In names and notes the source's numbering stands.

B1: Recombinant FLAG-tagged DONSON, wild type (natural protein, Xenopus laevis, UniProt Q5U4U4 1-579, looked up)
chain: MAELLPGYSPSFKKPSEILRLSRRRSRSEASKTGLSPFSPGDVIKRVPGLRPFSPGPNKGAGVKRRNPFASLENTVCSPVKRRAETVAEYGAASLEPRALSAVRPSCLGQDSPEPPQFNSVEDVIWGDPLAADADPLVKTESPEKPAPACEIPKGSVTFPADWSLKTRLLFTSSHSFSWADHLKAQEEAQGLVMQCRATAVNLPHSIQEPKLSTDLRCAFQQSLVHWIHPSLPWVQLFPRIGVDRKMAGKNTPWSQDESLQQVLMSEWALSFTSLYNLLKAKLCPYFYVCTYQFTVLFRAAGLAGSDVITAVMSPTTRGLREAMKNEGITFSQPLVEDDTGKKQKKPEAASQGDINPEKENGTAEADEASDESDEDESFSWLEEMGVEDKIKKPDSISIKLRKEKNEVKLDHKPESVVLVKGTNTFTLLNFLINCKSIVAAAGLQAGLPPTLLSPVAFRGATMHALKARSVNVKTRVNSGYKDQFSLEITGPIMPHSLHSLTMLLQSAQRGSFSAGLYTHEPTAVFNTPIHSQAVKEISADLQNCGLHPCTVEQLTQVNELGKLSLRHLEMTDYRYTWK
notes: Xenopus DONSON (Downstream Neighbor of SON); also called rFLAG-DONSON; FLAG-DONSON; source: E. coli Rosetta (DE3) pLysS, purified (Glutathione Sepharose, PreScission cleavage, Superdex 200); not shown: GST, N-terminal, cleaved
In the case of B1, the binding result in data set [1] was “binds”. Besides, the “stoichiometry N” value in data set [2] turned out to be 2.

B2: Recombinant FLAG-tagged DONSON N430A (natural protein, Xenopus laevis, UniProt Q5U4U4 1-579, looked up)
chain: B1 chain with N430A
notes: Xenopus DONSON with N430A; source: E. coli Rosetta (DE3) pLysS, purified (Glutathione Sepharose, PreScission cleavage, Superdex 200); not shown: GST, N-terminal, cleaved
Turning to B2, the binding result in data set [1] is listed as “binds”.
